Measurements published in the domain aggregation screens of Martell et al. (2025).

Experiment: soluble fraction after stress (log2 fold change); higher = more stays soluble; pooled small domains, quantitative proteomics
Conditions: stress: 50 degC
How it was run: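 Each library was heated to 50°C as a stress step. The libraries, made up of small protein domains, were pooled and analysed at high throughput by quantitative proteomics. The reported value is the base-two logarithm of the fold change in each protein's soluble amount after stress, taken as a measure of aggregation propensity. The higher the value, the more protein stays in solution.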

Row | Sequence | soluble fraction (log2)
1 | HMARPLLSPREQDVLALIARGFSYSEVARLQAVTVHTIRTHIRNLYAKLSVHSKTEAVFEATRMGLLP | -1.63
2 | HMYTLGEESDGTVRLLELYDIIKNKNEKIFVVDELDRSLHPNLTFNFVKKYLSIENKSQLIVSTH | -0.0206
3 | HMSQDEKITNYIYEGNKNTQTEAFVEAEKSYRKALSLSPEKPEALYNLGNTHFLDKQYDEASQRFF | 0.0647
4 | HMRPEVALSSRELEILEALATGKSNKELAQRLFISEATVKTHLIHIYQKLGVDTRTAAVTVARERKL | -1.52
5 | HMSQSIGQEKALSIALADAGVQKENALGLEVKGEYDDGQLLYEVEFRAGGVEYEYEVRASDGRIVKAERD | 0.13
6 | HMDRWSLLTLTTLAGGTLRFTELKRAIGDISQRMLAQTLRTLEREGYVSRKVYATIPPKVEYRLTALGQSL | -3.05
7 | HMLAFDKDDSGAVAEIILVLGRYWMDFSHKKYPAAEGVALRHKGLSHIFTVLRPYLSTPASELIGERLRR | -0.409
8 | HMPFESEMKHWIHLFAHELNLKVSDKYTQKIIEIFGNNFSEIFNEMSKSSLVSSNEKDLLNALEKSGNIH | -0.678
9 | HMKGEIEELLYEEVTKDNNTTFLRIYIKLNDEYNTLLNLGIIGIKTEEKVNELVNLGYKKVL | -2.45
10 | HMRRVGTALNRSHKVSYGESIQSIAARYNVNPTMLREYNRLKPEATITPGQILRIPPATIAS | 0.00426
11 | HMEMGNKIKELRTKLGITQEELSKTLNVSSQAVSKWENGGLPDLELIPEIAKYFNVTTDYLFDIK | 0.0658
12 | HMLAQYPGQVFSKEQIYNQVWKEPYYGVEDNVMSLIRRIRKKIEPDPSRPIYILTVWGIGYKFNN | -0.197
13 | HMTYSSESVRYRIKSLIDNETIDEILSDDKIVNILKSQGIDVARRTVAKYREAMGLASSIQRRREKKSA | -0.375
14 | HMAQVSDTGAIAKIVADAIAANPKQVQQYLDGNEKVLMYLVGQVMKLSKGKANPPMVIQLLKEQLG | -0.0543
15 | HMQLEPLVTSVIPVNFAKASDISGTIKGKEVGLLSERGNITAENRTNVLIVKDIRKSVDEINAMVKRLD | -0.0183
16 | HMSSKSDQLYLQLRRRISAMKDGEPFPTVRQLMTEYQVSQSTVTPAINQLKEKGLIEAYVGRGSFVSKK | -0.615
17 | HMEPVDYEALRKELMQKVMGLFTQSRDVGIQILSSFGAKKLSDVPDDKLVAFAASVDKALAG | -0.0404
18 | HMVGPAHIGLAVAKDQLPHWERHLTANGVEIEGRMRWDHGGESIYFRDPDAHLLELVTPGIWAN | -0.0453
19 | HMFKMRVNGKEVIGMAITAKPQANPIDVADEIKKFVIDANTKLPSTMKLEVLYDATGIFRASISEVIS | -0.273
20 | HMIYMIDPNDEIAVKLDEIYQRYLNRTIDPEGLIFFYNQIRNAQMGYSDVEKRILESPEYVSIPK | -0.242
21 | HMKERLLDPYKDFIVNYLQKYPYTPAAVMHDKLKESYPDFPKVDPKTIYNFVMLLRRDFNIPKV | -0.306
22 | HMDGEFINLKNRAGTEIEARILNYQNGQVKLERKDGVTFVVSISMFDAKSVIAINHKIAEIIDT | -1.37
23 | HMDLRAPKPIKEMGEEYIKLYQYLRKGESENIVMSKMNISLDDYDYMRSEIEDKLSLYNMLDLLRKP | -0.718
24 | HMDFSYTVGDIDEPIDSRGNSVIMLRKLAWGSNAEKLEIRRWIIDIDSERANKGVTFLTEEGPHNLVRV | 0.128
25 | HMGETISVPAVRSLAYDRAVDMLTAEGLKGIVADSVYDNRTQPGTVIEQNPKAGTIVKEGREVYLTINA | 0.157

Row | Sequence | soluble fraction (log2)
26 | HMSKQQVRSILDDIPNIGETRRKALMRQFQSLEKIREASVGQLREVDGMNEKAAQSVYQFFHK | -0.0486
27 | HMGSLRSALDGIPGIGEQYQKRLLAQFGSVKAMRSASVEDFEAVRGIGRAKAQALYDALHAG | -0.131
28 | HMSVLLDDLSPREREILQLVVEGHSSTKIAGMLGLASATVDTYRSRLMAKLHIDNLPDLVRFAIRHGLIS | -1.22
29 | HMGSIDYLVGSRLRQYRRLRGYSLIEFSAMLHRSKSAISKYERGEVSIDLRTLNEMARLLDIPLSGLLL | -4.56
30 | HMADFIGMNATVTERIFPQGFGRISFVYEGNSISEPARSEDGKEIPTGTSVVVLEVRDKVYIVQPL | -0.221
31 | HMTNTYEVIKNDIIFGVLPPLKKLKLLELKKKYITSVSTLREILSRLSGDGFVVSKEQKGFYVSAV | -0.00437
32 | HMRVQELARDLGVEADTLIALLRQMGIPVTGARSAINDAQQAKVLAKIERERRAGHSDPAKAIQAVLEEAS | 0.121
33 | HMASSVKAPLPGVILDIKVKVGDTIKNGDTVVILEAMKMENNIHSDKDGVVKSIEVNKGDSVLEGATLLTI | -0.0654
34 | HMSETQDQTTIEIEDMITVGTLAERLSIPVSTLIGELMKNGVMATVNEKIDFDTAQIIVGELKLPIELSKK | 0.201
35 | HMIDRADLWEALRKLPEDTLKLFSLHFEKGMTHDEISKHTDIPVGTVKTKLRRGLIEARKLAREF | -0.795
36 | HMGQELTMPDLKSMSRSNAEEKLKKMGLKLGAVFEENAKEPAGTVINQDPRSGSKITKGQTVDITVSLGEK | 0.131
37 | HMRESRLFQILYQLLTKKKVTAANLAKQFEVSVRTIYRDIDALSSSGIPIYASQGKNGGIQLDEDF | -1.11
38 | HMVWNVEQIKRAVDQLPDGYRVVFTLYLFEGYDHREIADILGISEGGSKSQFNRAKSKLKEILTAMS | -1.98
39 | HMGHRQRRARARNRSMLEDIPGLGPKRRQQLLRQFGGLPQLMRAGVAELSQVPGISDSLARKIHAELHPES | -1.77
40 | HMKKATYDVMVREALVSFKKKGATLQSIKKKIKADYAIEANATAVKSAIQKGMEAGSIRKSYDLYFFMD | -2.12
41 | HMAVKYTKDDFLYTEKPYEAIYDYKNDPFMHNLKIEQMAQQAAEVGVKTFKGLYKNYVKMREMQRGANV | 0.14
42 | HMDEPGAGYKWREDVLLRVMASHGIEESLRDDFVRHAVGFDNDDNMYLKKVEIENAAAAWVAN | -0.377
43 | HMTTEIVRMKKDVKIGQEITAKDIEVVEVGAYNLPDEVIRSSEEVVGKYVSSELLKGEYVLPSKISDTP | 0.0729
44 | HMGHYGQMTRDLIEKAKTYEEGEEKAALVLTIANLMKRHYLTWNRATVENTLIAEQLKEMSEGALTLPEDV | -0.51
45 | HMIVNEQEQTFIKAMRDDDFNTILELKMKGYQPSDNVLKSLQPDISSTTFIAAAKIFQMERMLK | 0.218
46 | HMEKKKVPEVAGQDEAAARNVMTNSGFVVDVEQKEDDNVPAGKVITTAPAGGVEVVEGTKIILYVSKGSN | 0.113
47 | HMDSTLDLVATQGGRLDQVLAEMIPEHSRNRLQHWIKAGRVLVDGQPVLEPKHKIYGGEDLAVRVD | 0.278
48 | HMTLGARTLAAIQSLPKVQQAVFTMKHFEGLKYREISQITGTSEGALKASYHIALEKIKAFLREK | -2.53
49 | HMDNEIRIPLPSLQRDGFSIGTREDDGSQLVRIMSAGSFGGMIRSFRLPEGMRIEGAKWEGEIVSIRL | 0.0774
50 | HMIILDASASRAIGNGTIEETKWDFGNGESSTNRGGPIVERQIYANQAAYILKLSMKTNDGQLFTKEIQLL | -0.0666

Row | Sequence | soluble fraction (log2)
51 | HMTEISGIEKFLASGAINGIGPAMAKKIVAEFGEKTLEIIAKSPNELLKVPGIGKKTAEKISTSYLEQ | -0.0669
52 | HMNSPSKVIDISQLRKGMFVQLDLGWMSHPFAVGSFKVSTDEQIQTLRGLGLSEVRYIPEKSDPA | -0.514
53 | HMTISDEAMQAGRDAFIQALVAMGAEKNADAMASIEKALSADPGNKEYLATRDLIKKSMGMKK | 0.44
54 | HMSINTIIAKNLNRLRNERNLSLGQLAELSGVSKVMLSQIEKGDSNPTVNTIWKIASGLNVPYTAILDQP | -0.0848
55 | HMTKGVQMFAEQLKRTRQSRHYSQAEIASKLGVTQQAIAKWETGVSTPSPTSISKLSDILGISTDVLLKGA | 0.0763
56 | HMGDDVRKNILDVLSKFERVDITDLDSLELVRFYLEIEDIFDIEIKENDFYRLKSVDSIVDYIRNKSFF | -1.2
57 | HMLGKSNAERQLDLILGAIERSITGVSRSKLMQAYHLDSRGATAAFETLEQRGLITRSKSGRTELLIPTRV | -1.29
58 | HMLLPGEELRVMIIQEGKEYGQGVGYLDDGTMVVVEDGQRALNRTENVVVTKVLQTTAGRMIFAK | -0.631
59 | HMRTYYEILGVSKNASLHEIQKAYRELALKYHPKNNSDPTAEEKFTQINEAYTHLSDAARRRSYDDL | 0.222
60 | HMLDSGNPILPYKLSLLANVDIRTVRNAISAGELVAFKSEFDGEVYVENGSARRWLHGRRGFKPTLK | -0.84
61 | HMNVKVSVDDIARPGLMASGRVTFADGNRGMWYVDEMGRLGIDPEVEGYQPSEADIQAFQRELQSVMES | 0.102
62 | HMQMSPREKMIYSFIESHPGTKSGEIAEKLNVPLPTVKRILSEMVSGNFIAKHGSGIGTNYSTEK | 0.233
63 | HMFQEGLVAPPAYTRPESFRGWEVPEILRSGNFPAIAKWQHEESLRLTRERRPAMLEAYERRT | 0.121
64 | HMSAPEGWMNRGDLRDNFRIQYPVTDRIIASYRESHPEWFGTYLSKTSKSLEYFHPDLVAKVREAAN | -0.101
65 | HMLLFNPGEVLKGFVLQSGTNNRVLLQIGDSRVIADTQTPLKAGEQLVLRVEETGPKTILQILG | 0.101
66 | HMVIDETVLIDLFERLAEDDRPQRVAFRYILALVLLRKRTLQLIGREDEDDGEIWLLRFKGTDGEPIRV | -0.297
67 | HMERYFVLVIYDIVDNKKRLKLSKYLLGYGIRVQKSAFEMMITKEKYNKLIKELPTYIEEGEDSIRLY | 0.132
68 | HMEAPNELLVPEGARPARADRVLAAAFPEHSRTALQRAFDAGLVRRANLVLSRDTAVAGGDRIAFSLPAV | -0.00557
69 | HMTLLVPASKEAILGGLAKIDALKVILKPEKDYSKTHAMTIGTKDEVIAKLDSFLSGMDSEKNQVLIQEYM | 0.107
70 | HMEITGKYKAKEDIKLKVIPLISSLDLQDIKQNTELEVKDTMNNWAYVTVQEKQGWVVLEKIEKVE | -0.0549
71 | HMTGKVKWYDADKGFGFVTEDGGRDVYVRKSALPQGVETLKAGQRLEFGIAEGRRGPQALSVR | 0.0817
72 | HMSQAVTMLKAGRLLANSKGTGAAVRDLEPGMLLYPTGQKDGTMWEVEDEMGNKGWVNSTSMQLA | 0.188
73 | HMADEIQIGLQKAIQSLPEKQKLVFSMRYYDEIPYDEMSKILDMSVGTLKTNYHYAKQKIEDFLQNH | -1.05
74 | HMGMAQELMESRLTAVFTSGKDQLAVLQRKDGSTLKLGADSKPWRIESFDGRKAVFVSADQQRVERLL | -0.209
75 | HMGVEKHLRITGTSTVSWKDAIVQAVAEASKTIDYLSNVKIIEQRARIDGKKLVEYFVDLDLSFVID | -0.0917
